Results on 16 molecules are retold here after patent publication US20130272968A1 (Bayer, published 2013).

The chains are these.
T1: murine prolactin receptor on cells (HEK293 and Ba/F cells stably transfected with murine PRLR) (mouse, UniProt Q08501 20-608)
T1 sequence (looked up): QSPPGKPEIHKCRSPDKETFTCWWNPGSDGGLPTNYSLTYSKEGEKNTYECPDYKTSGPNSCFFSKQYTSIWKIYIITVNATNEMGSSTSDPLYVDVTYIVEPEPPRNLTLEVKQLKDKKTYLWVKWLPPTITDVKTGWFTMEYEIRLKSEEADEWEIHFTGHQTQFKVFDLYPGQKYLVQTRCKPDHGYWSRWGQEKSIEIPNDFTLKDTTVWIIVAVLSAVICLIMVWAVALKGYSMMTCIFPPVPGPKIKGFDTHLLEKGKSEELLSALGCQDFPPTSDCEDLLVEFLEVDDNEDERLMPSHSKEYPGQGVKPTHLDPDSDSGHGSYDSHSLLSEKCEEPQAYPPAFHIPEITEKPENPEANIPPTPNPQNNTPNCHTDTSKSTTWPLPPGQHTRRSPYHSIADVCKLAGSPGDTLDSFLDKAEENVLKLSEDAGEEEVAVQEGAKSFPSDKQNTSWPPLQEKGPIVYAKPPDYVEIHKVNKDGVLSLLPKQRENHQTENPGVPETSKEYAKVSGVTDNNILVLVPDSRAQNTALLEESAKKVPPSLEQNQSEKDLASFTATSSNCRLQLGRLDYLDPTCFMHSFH

T2: extracellular domain of human PRLR (soluble, monomeric, expressed in HEK293 cells) (human, UniProt P16471 25-234)
T2 construct: also called ECD-PRLR; ECD of PRLR
T2 sequence: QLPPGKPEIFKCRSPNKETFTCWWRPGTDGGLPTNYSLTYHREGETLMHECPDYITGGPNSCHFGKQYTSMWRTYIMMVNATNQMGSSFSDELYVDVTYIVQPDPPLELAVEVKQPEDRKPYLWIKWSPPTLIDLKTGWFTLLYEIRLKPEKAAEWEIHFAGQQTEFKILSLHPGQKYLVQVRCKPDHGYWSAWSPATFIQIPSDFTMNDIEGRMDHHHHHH

B1: 005-C04 (human IgG1) (antibody, V domains shown)
VH: EVQLLESGGGLVQPGGSLRLSCAASGFTFSSYWMHWVRQAPGKGLEWVSDISSASSYTNYADSVKGRFTISRDNSKNTLYLQMNSLRAEDTAVYYCARGLDARRMDYWGQGTLVTVSS
VL: QSVLTQPPSASGTPGQRVTISCTGSSSNIGAGYVVHWYQQLPGTAPKLLIYRNNQRPSGVPDRFSGSKSGTSASLAISGLRSEDEADYYCAAWDDSLNGWLFGGGTKLTVLG
B2: 001-E06 (human IgG1) (antibody, V domains shown)
VH: QVELLESGGGLVQPGGSLRLSCAASGFTFSSYWMSWVRQAPGKGLEWVSSVSDTGTDTHYADSVKGRFTISRDNSKNTLYLQMNSLRAEDTAVYYCAKTPLAYSSGWYYFDYWGQGTLVTVSS
VL: DIVLTQPPSASGTPGQRVTISCSGSSSNIGSNTVNWYQQLPGTAPKLLIYRNYQRPSGVPDRFSGSKSGTSASLAISGLRSEDEADYYCQSYDSSLSGSVFGGGTKLTVLG
B3: XHA06.642 (antibody, human IgG1, V domains shown)
VH: EVQLVESGGDLVKPGGSLKLSCAVSGFTFSSYGMSWVRQTPDKRLEWVATVSSGGTYTYYPDSVKGRFTISRDNAKNTLYLQMSSLKSEDSAMYYCARHRGNYYATYYYAMDYWGQGTSVTVSS
VL: DIVLTQSPASLAVSLGQGATISCRASKSVSTSGYTYMHWYQQKPGQPPKLLIYLASNLESGVPARFSGSGSGTDFTLNIHPVEEEDAATYYCQHSGELPPSFGGGTKLEIKR
B4: 006-H08-53-27-0 (Fab, V domains shown)
VH: EVQLLESGGGLVQPGGSLRLSCAASGFTFDDYGMSWVRQAPGKGLEMVAVISYDGSNKYYADSVKGRFTISRDNSQNTLYLQMNSLRAEDTAVYYCASPLESPVAFDIWGQGTLVTVSS
VL: QSVLTQPPSASGTPGQRVTISCSGSNSNIGSNPVNWYQQLPGTAPKLLIYDNNKRPSGVPDRFSGSKSGTSASLAISGLRSEDEADYYCQSYDTGLSGWVFGGGTKLTVL
notes: Tested as E. coli supernatant; also called maturated 006-H08 Fab variant; copies: 1 + 1
B5: 006-H08-37-19-0 (Fab, V domains shown)
VH: EVQLLESGGGLVQPGGSLRLSCAASGFTFDDYGMSWVRQAPGKGLEWVAVISYDGSNKYYADSVKGRFTISRDNSQNTLYLQMNSLRAEDTAVYYCASPLESPVAFDIWGQGTLVTVSS
VL: QSVLTQPPSASGTPGQRVTISCSGSNSNIGSNPVNWYQQLPGTAPKLLIYDNNKRPSGVPDRFSGSKSGTSASLAISGLRSEDEADYYCQSYDTGLSMWVFGGGTKLTVL
notes: as for B4
B6: 006-H08-36-17-0 (Fab, V domains shown)
VH: EVQLLESGGGLVQPGGSLRLSCAASGFTFDDYGMSWVRQAPGKGLEWVAVISYDGSNKYYADSVKGRFTISRDNSQNTLYLQMNSLRAEDTAVYYCASPLESPVAFDIWGQGTLVTVSS
VL: QSVLTQPPSASGTPGQRVTISCSGSNSNIGSNPVNWYQQLPGTAPKLLIYDNNKRPSGVPDRFSGSKSGTSASLAISGLRSEDEADYYCQSYDTGLGGWVFGGGTKLTVL
notes: as for B4
B7: 006-H08-32-2 (Fab, V domains shown)
VH: EVQLLESGGGLVQPGGSLRLSCAASGFTFDDYGMSWVRQAPGKGLEMVAVISFDGSNKYYADSVKGRFTISRDNSQNTLYLQMNSLRAEDTAVYYCASPLESPVAFDIWGQGTLVTVSS
VL: QSVLTQPPSASGTPGQRVTISCSGLNSNVGSNPVNWYQQLPGTAPKLLIYDNNKRPSGVPDRFSGSKSGTSASLAISGLRSEDEADYYCQSYDEGLGGWVFGGGTKLTVL
notes: as for B4
B8: 006-H08-13-6-1 (Fab, V domains shown)
VH: EVQLLESGGGLVQPGGSLRLSCAASGFTFDDYGMSWVRQAPGKGLEWVAVISYDGSNKYYADSVKGRFTISRDNSQNTLYLQMNSLRAEDTAVYYCASPLESPVAFDIWGQGTLVTVSS
VL: QSVLTQPPSASGTPGQRVTISCSGSNSNIGGNPVNWYQQLPGTAPKLLIYDNNKRPSGVPDRFSGSKSGTSASLAISGLRSEDEADYYCQSYDTGLSGWVFGGGTKLTVL
notes: as for B4
B9: 006-H08-59-30-0 (Fab, V domains shown)
VH: EVQLLESGGGLVQPGGSLRLSCAASGFTFDDYGMSWVRQAPGKGLEWVAVISFDGSNKYYADSVKGRFTISRDNSQNTLYLQMNSLRAEDTAVYYCASPLESPVAFDIWGQGTLVTVSS
VL: QSVLTQPPSASGTPGQRVTISCSGSNSNIGSNPVNWYQQLPGTAPKLLIYDNNKRPSGVPDRFSGSKSGTSASLAISGLRSEDEADYYCQSYDTGLSGWVFGGGTKLTVL
notes: as for B4
B10: 006-H08-65-33-2 (Fab, V domains shown)
VH: EVQLLESGGGLVQPGGSLRLSCAASGFTFDDYGMSWVRQAPGKGLEWVAVISYDGSNKYYADSVKGRFTISRDNSQNTLYLQMNSLRAEDTAVYYCASPLESPVAFDIWGQGTLVTVSS
VL: QSVLTQPPSASGTPGQRVTISCSGSNDNIGSNPVNWYQQLPGTAPKLLIYDNNKRPSGVPDRFSGSKSGTSASLAISGLRSEDEADYYCQSYDTGLSGWVFGGGTKLTVL
notes: as for B4
B11: 006-H08-14-6-0 (Fab, V domains shown)
VH: EVQLLESGGGLVQPGGSLRLSCAASGFTFDDYGMSWVRQAPGKGLEWVAVISYDGSNKYYADSVKGRFTISRDNSQNTLYLQMNSLRAEDTAVYYCASPLESPVAFDIWGQGTLVTVSS
VL: QSVLTQPPSASGTPGQRVTISCSGSNSNIGSSPVNWYQQLPGTAPKLLIYDNNKRPSGVPDRFSGSKSGTSASLAISGLRSEDEADYYCQSYDTGLSGWVFGGGTKLTVL
notes: as for B4
B12: 006-H08-35-17-1 (Fab, V domains shown)
VH: EVQLLESGGGLVQPGGSLRLSCAASGFTFDDYGMSWVRQAPGKGLEWVAVISYDGSNKYYADSVKGRFTISRDNSQNTLYLQMNSLRAEDTAVYYCASPLESPVAFDIWGQGTLVTVSS
VL: QSVLTQPPSASGTPGQRVTISCSGSNSNIGSNPVNWYQQLPGTAPKLLIYDNNKRPSGVPDRFSGSKSGTSASLAISGLRSEDEADYYCQSYDTGASGWVFGGGTKLTVL
notes: as for B4
B13: 006-H08-33-16-0 (Fab, V domains shown)
VH: EVQLLESGGGLVQPGGSLRLSCAASGFTFDDYGMSWVRQAPGKGLEWVAVISYDGSNKYYADSVKGRFTISRDNSQNTLYLQMNSLRAEDTAVYYCASPLESPVAFDIWGQGTLVTVSS
VL: QSVLTQPPSASGTPGQRVTISCSGSNSNIGSNPVNWYQQLPGTAPKLLIYDNNKRPSGVPDRFSGSKSGTSASLAISGLRSEDEADYYCQSYDEGLSGWVFGGGTKLTVL
notes: as for B4
B14: 006-H08-68-35-2 (Fab, V domains shown)
VH: EVQLLESGGGLVQPGGSLRLSCAASGFTFDDYGMSWVRQAPGKGLEWVAVISYDGSNKYYADSVKGRFTISRDNSQNTLYLQMNSLRAEDTAVYYCASPLESPVAFDIWGQGTLVTVSS
VL: QSVLTQPPSASGTPGQRVTISCSGSNSNVGSNPVNWYQQLPGTAPKLLIYDNNKRPSGVPDRFSGSKSGTSASLAISGLRSEDEADYYCQSYDTGLSGWVFGGGTKLTVL
notes: as for B4
B15: 006-H08-35-17-4 (Fab, V domains shown)
VH: EVQLLESGGGLVQPGGSLRLSCAASGFTFDDYGMSWVRQAPGKGLEWVAVISYDGSNKYYADSVKGRFTISRDNSQNTLYLQMNSLRAEDTAVYYCASPLESPVAFDIWGQGTLVTVSS
VL: QSVLTQPPSASGTPGQRVTISCSGSNSNIGSNPVNWYQQLPGTAPKLLIYDNNKRPSGVPDRFSGSKSGTSASLAISGLRSEDEADYYCQSYDTGSSGWVFGGGTKLTVL
notes: as for B4
B16: 006-H08-63-32-4 (Fab, V domains shown)
VH: EVQLLESGGGLVQPGGSLRLSCAASGFTFDDYGMSWVRQAPGKGLEWVAVISYDGSNKYYADSVKGRFTISRDNSQNTLYLQMNSLRAEDTAVYYCASPLESPVAFDIWGQGTLVTVSS
VL: QSVLTQPPSASGTPGQRVTISCSGLNSNIGSNPVNWYQQLPGTAPKLLIYDNNKRPSGVPDRFSGSKSGTSASLAISGLRSEDEADYYCQSYDTGLSGWVFGGGTKLTVL
notes: as for B4

In the first assay the target is T1, murine prolactin receptor on cells …. The assay can be described thus: cell-based or functional assay.
Regarding B1, the “IC50, inhibition of prolactin-activated proliferation of Ba/F cells stably expressing the murine prolactin receptor” value was found to be 0.74 µg/mL and the “IC50, prolactin-activated luciferase reporter gene activity, HEK293 cells stably transfected with mPRLR” value is 0.45 µg/mL.
Regarding B2, the “IC50, inhibition of prolactin-activated proliferation of Ba/F cells stably expressing the murine prolactin receptor” value came out at 43.7 µg/mL.
B3: the “IC50, prolactin-activated luciferase reporter gene activity, HEK293 cells stably transfected with mPRLR” value was above 50 µg/mL.

In another assay the target is T2, extracellular domain of human PRLR …. The assay can be described thus: HTRF competition: Fab-containing E. coli supernatant with biotinylated ECD of human PRLR and streptavidin-europium, then Alexa Fluor 647-labelled IgG1 006-H08 as competitor; signal at 665 nm after 5 to 65 min; lower signal than control Fab 006-H08 = improved binding [Figure 21]. Here is the method:
Normalized E. coli-derived supernatants and 8 nM biotinylated extracellular domain of PRLR together with 1 nM Streptavidin-Europium were incubated in 96 well-microtiter plates for 30 min. Afterwards 200 mM KF and 50 nM Alexa Fluor 647-labeled IgG1 of 006-H08 were added. This mixture was incubated at room temperature for 5, 20, 35, 50, and 65 minutes, respectively. At the indicated time points, the absorption at 665 nm (and 620 nm) was measured using EnVision MultilabelReader (Perkin Elmer).
On to B4, for which the binding result is “binds”.
For B5, the binding result is reported as “binds”.
Same read-out and setting: for B6 the value was “binds”; for B7, “binds”.
On the same count and under the same terms, for B8 the value was “binds”.
Same read-out and setting: for B9 the value was “binds”; for B10, “binds”.
As for B11, the binding result is on record as “binds”.
Turning to B12, the binding result is given as “binds”.
Turning to B13, the binding result is “binds”.
Turning to B14, the binding result is given as “binds”.
Still for that read-out and setting: with B15 the entry was “binds”; with B16, “binds”.
